According to US9540428B2, “Extracellular matrix heparin-binding domains” (EPFL-TTO, priority 2012, dated 2017):

B1: TNC III1-5: recombinant tenascin C fibronectin type III repeats 1-5 (E622 to A1074) with transglutaminase substrate NQEQVSPL and 6×His tag, SEQ ID NO:1 (protein)
chain: METDTLLLWVLLLWVPGSTGDAAQPAIEGRNQEQVSPLGGSEVSPPKDLVVTEVTEETVNLAWDNEMRVTEYLVVYTPTHEGGLEMQFRVPGDQTSTIIQELEPGVEYFIRVFAILENKKSIPVSARVATYLPAPEGLKFKSIKETSVEVEWDPLDIAFETWEIIFRNMNKEDEGEITKSLRRPETSYRQTGLAPGQEYEISLHIVKNNTRGPGLKRVTTTRLDAPSQIEVKDVTDTTALITWFKPLAEIDGIELTYGIKDVPGDRTTIDLTEDENQYSIGNLKPDTEYEVSLISRRGDMSSNPAKETFTTGLDAPRNLRRVSQTDNSITLEWRNGKAAIDSYRIKYAPISGGDHAEVDVPKSQQATTKTTLTGLRPGTEYGIGVSAVKEDKESNPATINAATELDTPKDLQVSETAETSLTLLWKTPLAKFDRYRLNYSLPTGQWVGVQLPRNTTSYVLRGLEPGQEYNVLLTAEKGRHKSKPARVKASTEQAGGGSHHHHHH
modifications: Tenascin III signal sequence with polyhistidine tag
B2: Fg β15-66: heparin-binding domain of human fibrinogen β chain aa15-66 (SEQ ID NO:8); construct with TG substrate and His tag, SEQ ID NO:2 (protein)
chain: GSNQEQVSPLGHRPLDKKREEAPSLRPAPPPISGGGYRARPAKAAATQKKVERKAPDAGGCGHHHHHH
modifications: GS linker, transglutaminase substrate, the Fg beta15-66, with a Histidine tag

Legend:
FGF-6 = target: T1, FGF-6 (Homo sapiens, UniProt P10767); test: ELISA binding to coated FGF-6; details: 50 nM cytokine coated
T1 sequence (P10767 38-208): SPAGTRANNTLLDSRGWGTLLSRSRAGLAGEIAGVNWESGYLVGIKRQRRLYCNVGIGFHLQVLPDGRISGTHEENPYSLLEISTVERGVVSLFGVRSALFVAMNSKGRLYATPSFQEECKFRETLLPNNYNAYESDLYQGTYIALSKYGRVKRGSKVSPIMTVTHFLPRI
Protocol: (§1) ELISA plates were coated with cytokines or BSA and further incubated with TNC III1-5 to analyze binding of TNC III1-5 to a wide variety of cytokines. […] Results are depicted in FIG. 3. Method: 50 nM of cytokine was coated for (1 hr, 37° C.). After blocking with 2% BSA (1 hr, RT). 100 nM TNC III1-5 was applied in PBST (0.05% tween, 0.1% bovine serum albumin (BSA)) (1 hr, RT). TNC III1-5 was detected with horseradish peroxidase (HRP)-anti-HIS in PBST (1 hr, RT) and developed with 3,3′,5,5′-tetramethylbenzidine (TMB), a soluble colorimetric HRP […]. Addition of sulfuric acid stop solution changes the color to yellow, enabling accurate measurement of the intensity at 450 nm using a spectrophotometer or plate reader. […] Heparin (4 μM) was added to TNC III1-5 to test the effect of blocking the heparin binding site of TNC III1-5, which has been defined as domain TNC III5 (Weber, Zimmermann, et al., 1995).

FGF-4 = target: T2, FGF-4 (Homo sapiens, UniProt P08620); test: ELISA binding to coated FGF-4; details: 50 nM cytokine coated
T2 sequence (P08620 31-206): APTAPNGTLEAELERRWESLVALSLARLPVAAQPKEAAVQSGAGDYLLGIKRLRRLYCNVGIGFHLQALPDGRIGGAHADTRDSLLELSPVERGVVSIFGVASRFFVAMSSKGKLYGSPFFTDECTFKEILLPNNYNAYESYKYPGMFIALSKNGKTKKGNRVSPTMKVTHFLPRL
Protocol: as §1

SMC = test: Smooth muscle cell proliferation on modified TG-PEG gels with PDGF-BB; format: cell-based
Protocol: Method: Three different gels were fabricated, unmodified PEG, and PEG gels modified with TNC III1-5 or FN III9*-10,TNC III1-5 (5 μM). Unbound fragment was washed from the gels. Sequentially, gels were incubated for 1 hour at 37° C. with 100 μL DMEM without PDGF-BB or with PDGF-BB (1 ng per gel). For one set of gels, the media containing PDGF-BB was removed and gels were washed for 1 hour at RT. Cells were added to each gel and a proliferation assay with Alamar Blue was performed at 72 hours.

VEGF-C = target: T3, VEGF-C (Homo sapiens, UniProt P49767); test: ELISA binding to coated VEGF-C; details: 50 nM cytokine coated
T3 sequence (P49767 112-419): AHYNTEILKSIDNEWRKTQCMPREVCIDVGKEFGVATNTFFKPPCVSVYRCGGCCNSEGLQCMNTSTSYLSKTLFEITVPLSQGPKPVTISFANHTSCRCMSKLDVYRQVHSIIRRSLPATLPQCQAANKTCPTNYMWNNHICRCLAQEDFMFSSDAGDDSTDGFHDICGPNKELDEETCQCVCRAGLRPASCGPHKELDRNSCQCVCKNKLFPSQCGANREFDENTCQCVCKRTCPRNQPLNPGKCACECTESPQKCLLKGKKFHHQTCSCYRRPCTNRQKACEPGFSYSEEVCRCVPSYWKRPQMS
Protocol: as §1

BMP-2/7 = target: T4, BMP-2/7 (Homo sapiens, UniProt P12643+P18075); test: ELISA binding to coated BMP-2/7; details: 50 nM cytokine coated
T4 sequence (P12643 283-396): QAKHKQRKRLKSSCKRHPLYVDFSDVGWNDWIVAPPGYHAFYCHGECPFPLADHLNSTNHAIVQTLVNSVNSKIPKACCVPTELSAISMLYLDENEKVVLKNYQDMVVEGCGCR
T4 sequence (P18075 293-431): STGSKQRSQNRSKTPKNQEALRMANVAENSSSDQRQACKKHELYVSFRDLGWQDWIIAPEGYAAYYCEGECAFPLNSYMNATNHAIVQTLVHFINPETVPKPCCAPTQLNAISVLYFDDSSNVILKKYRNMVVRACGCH
Protocol: as §1
ELISA plates were coated with cytokines or BSA and further incubated with Fg β15-66 to analyze binding of […] to a wide variety of cytokines. […] Results are depicted in FIG. 4. Method: The methods were analogous to those used in Example 3.

Molecule | binding to FGF-6 (ELISA, signal above BSA background) (FGF-6) | binding to FGF-4 (ELISA, signal above BSA background) (FGF-4) | SMC proliferation on TG-PEG gels (2%) (SMC; in the presence of PDGF-BB, 5 μM fragment, 72 hours) | SMC proliferation on modified gels vs unmodified gels (SMC; unbound PDGF-BB removed, p<0.05) | binding to VEGF-C (ELISA, signal above BSA background) (VEGF-C) | binding to BMP-2/7 (ELISA, signal above BSA background) (BMP-2/7)
B1 | positive binding | positive binding | enhanced SMC proliferation | significantly increased proliferation | positive binding | 
B2 |  |  |  |  |  | positive binding
